These results are taken from patent US20230049152A1.

This experiment deals with human CCR8 (human) (UniProt P51685). The experiment in a line: cell-based or functional assay.

In turn, “murine anti-human CCR8 mAb L263G8 (Biolegend) (antibody)” returned an ADCC reporter EC50, mFcgRIV Jurkat cells with CHO/hCCR8 (FIG. 11D) of 0.28 nM; a CCL1 blocking potency IC50, Ca2+ influx of 23.6 nM; an induction fold at about 1 nM antibody, mFcgRIV Jurkat NFAT-luciferase reporter above 10 fold; an induction fold plateau at about 40 nM antibody, mFcgRIV Jurkat NFAT-luciferase reporter of 11 fold.
